Measurements taken from patent US20250346676A1.

Experiments:
FcγRIIIaV158 = FcγRIIIaV158 (UniProt P08637); experiment: TR-FRET competition with labeled competitor antibody on cells bearing the receptor
FcγRIIaH131 (human) = FcγRIIaH131 (human) (UniProt P12318); experiment: as above
FcγRIIb = FcγRIIb (UniProt P31994); experiment: as above
[1] = molecular target: human recombinant CD64 (R&D Systems) (human) (UniProt P12314); experiment: SPR (Biacore T200); construct captured on Protein A, soluble CD64 as analyte
Chain of human recombinant CD64 (R&D Systems) (human) (P12314 16-288 limits assumed): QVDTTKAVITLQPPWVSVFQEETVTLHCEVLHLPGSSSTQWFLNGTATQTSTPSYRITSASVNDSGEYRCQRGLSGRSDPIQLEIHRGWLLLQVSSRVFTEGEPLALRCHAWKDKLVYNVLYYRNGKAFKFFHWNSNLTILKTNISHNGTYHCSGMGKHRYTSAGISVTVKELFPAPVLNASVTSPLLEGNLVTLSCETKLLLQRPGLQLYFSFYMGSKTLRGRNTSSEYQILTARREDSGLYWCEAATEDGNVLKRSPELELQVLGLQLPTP

Chain of FcγRIIb (P31994 43-310 limits assumed): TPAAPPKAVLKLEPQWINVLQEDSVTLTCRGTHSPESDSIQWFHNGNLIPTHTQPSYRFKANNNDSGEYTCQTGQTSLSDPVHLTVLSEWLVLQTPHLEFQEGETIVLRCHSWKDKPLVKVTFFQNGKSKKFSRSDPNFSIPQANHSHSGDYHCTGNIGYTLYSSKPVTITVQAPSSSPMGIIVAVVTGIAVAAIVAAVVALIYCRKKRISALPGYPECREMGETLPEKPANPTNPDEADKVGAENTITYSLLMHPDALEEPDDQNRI
Chain of FcγRIIIaV158 (P08637 17-254 F176V limits assumed): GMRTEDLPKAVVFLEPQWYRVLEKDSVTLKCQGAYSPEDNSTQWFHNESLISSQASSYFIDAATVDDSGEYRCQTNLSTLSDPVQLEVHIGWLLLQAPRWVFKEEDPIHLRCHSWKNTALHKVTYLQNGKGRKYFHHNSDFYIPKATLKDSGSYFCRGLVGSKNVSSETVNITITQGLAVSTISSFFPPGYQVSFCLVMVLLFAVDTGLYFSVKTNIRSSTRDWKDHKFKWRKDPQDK
Chain of FcγRIIaH131 (human) (P12318 34-317): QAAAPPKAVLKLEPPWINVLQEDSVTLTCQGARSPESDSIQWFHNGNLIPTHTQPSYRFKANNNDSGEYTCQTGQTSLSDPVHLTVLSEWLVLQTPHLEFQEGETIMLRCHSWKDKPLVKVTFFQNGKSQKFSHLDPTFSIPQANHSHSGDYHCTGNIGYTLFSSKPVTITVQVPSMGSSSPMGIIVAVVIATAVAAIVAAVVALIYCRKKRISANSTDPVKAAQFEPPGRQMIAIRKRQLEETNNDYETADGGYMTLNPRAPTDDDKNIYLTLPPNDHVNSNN

Work on “anti-CD20 monoclonal antibody (CDRs from Gazyva (obinutuzumab))” yielded an IC50 (FcγRIIIaV158) of 428 nM, an IC50 (FcγRIIaH131 (human)) of 1270 nM and an IC50 (FcγRIIb) of 3290 nM. For the same substance, the CD64 Valency by SPR [1] was 1.5.
